Data taken from patent US12565520B2, “Chemically-stabilized allosteric modulators of leucine-rich repeat kinase 2 (LRRK2)” (UNIVERSITY OF GEORGIA RESEARCH FOUNDATION, INC., priority 2020, dated 2026).
Entries after “also recorded” stand apart in the source; their conditions may differ.

How the values were obtained:
GFP-tagged LRRK2 [1] = biological target: T1, GFP-tagged LRRK2 (Homo sapiens, UniProt Q5S007); experiment: Pulldown of LRRK2 from cell lysate with biotin-labeled peptides; type: binding; conditions: 10 μM biotin-labeled peptide, lysate of HEK293 cells overexpressing GFP-tagged LRRK2
T1 construct: co-transfecting HEK293 cells with GFP-tagged and strep-tagged full-length LRRK2; expressed in transfected cells; host or cells: HEK293
Experimental: Pulldown experiments. Fresh lysate of HEK293 cells overexpressing GFP-tagged LRRK2 was mixed and incubated with biotin-labeled peptide (added to a final concentration of 10 μM) and incubated at 4° C. overnight. The mixture was then applied to Magnetic Strep-beads (MagStrep ‘Type3’ XT Beads (IBA, Gottingen, Germany)) and the immune complex was washed twice (10 mM Tris/HCl pH 7.5, 150 mM NaCl) and subjected to immunoblot analysis. Samples were separated on 6% Tris-Glycine gels, transferred onto a nitrocellulose membrane (GE Lifesciences), and processed for western analysis. Membranes were blocked in 5% dry milk in Tris-buffered saline plus Tween-20 for 1 hour and probed with rat monoclonal anti-LRRK2 (clone 24D8 1:1000, Gloeckner lab(69)) and incubated overnight at 4° C. with gentle shaking. Membranes were then washed three times for 10 min at room temperature in PBS containing 0.1% or 0.05% Tween-20 and then incubated for 1 hour with anti-rat IgG-HRP (sc-2750, Santa Cruz Biotechnology). Membranes were again washed three times for 10 min at room temperature in PBS containing 0.1% or 0.05 Tween-20. The membranes were coated with enhanced chemiluminescent (ECL) reagent (WesternSure PREMIUM, Li-COR biosciences), and proteins were detected using the C-Digit Imaging System (Li-COR Biosciences). […]

GFP-tagged LRRK2 [2] = biological target: T1, GFP-tagged LRRK2; experiment: Localization of GFP-tagged LRRK2 by confocal microscopy; type: cell-based; conditions: HEK293 cells, 10 μM peptide, 12 h
Source text: Next, we analyzed the effects of these inhibitor peptides on LRRK2 localization.

LRRK2 dimerization = biological target: T2, LRRK2 dimerization (Homo sapiens, UniProt Q5S007); experiment: In vitro dimerization assay (co-immunoprecipitation of GFP- and Strep-tagged LRRK2); type: biochemical; conditions: 10 μM peptide overnight, HEK293 lysates
T2 construct: co-transfecting HEK293 cells with GFP-tagged and strep-tagged full-length LRRK2; expressed in transfected cells; host or cells: HEK293
Experimental: In vitro dimerization assay. HEK293 cells were co-transfected using JetPEI reagent (Polyplus transfection) with pcDNA3.1_GFP.LRRK2 and pDEST(N)SF.LRRK2. Cells were cultivated for 48 hours. The cells were then lysed with 200 μL ice-cold lysis buffer (10 mM Tris/HCl pH 7.5; 150 mM NaCl; 0.5 mM EDTA; 0.5% NP-40), complete EDTA-free protease inhibitor cocktail (Sigma-Aldrich Cat #11836170001) and Protease Inhibitor Cocktail, Sigma (cat. no. P-2714). The mixture was incubated and rotated on ice for 30 minutes with extensively pipetting every 10 minutes. Lysate was cleared by centrifugation for 10 min at 14000 g for 10 min at 4° C. The supernatant was transferred to a precooled tube and 300 μL dilution buffer (same as lysis buffer without NP-40) was added to the lysate. Peptides were added to a final concentration of 10 μM and the mixture was allowed to rotate at 4° C. overnight. GFP-LRRK2 was immunoprecipitated with Magnetic GFP nanotrap beads (ChromoTek). […] The membranes were coated with enhanced chemiluminescent (ECL) reagent (WesternSure PREMIUM, Li-COR biosciences), and proteins were detected by C-Digit Imaging System (Li-COR Biosciences).
To determine whether LCIP1 and LRIP4 could effectively disrupt LRRK2 dimerization, we monitored disruption of dimerization using two different tagged versions of LRRK2. […]

T2 sequence (Q5S007 whole entry): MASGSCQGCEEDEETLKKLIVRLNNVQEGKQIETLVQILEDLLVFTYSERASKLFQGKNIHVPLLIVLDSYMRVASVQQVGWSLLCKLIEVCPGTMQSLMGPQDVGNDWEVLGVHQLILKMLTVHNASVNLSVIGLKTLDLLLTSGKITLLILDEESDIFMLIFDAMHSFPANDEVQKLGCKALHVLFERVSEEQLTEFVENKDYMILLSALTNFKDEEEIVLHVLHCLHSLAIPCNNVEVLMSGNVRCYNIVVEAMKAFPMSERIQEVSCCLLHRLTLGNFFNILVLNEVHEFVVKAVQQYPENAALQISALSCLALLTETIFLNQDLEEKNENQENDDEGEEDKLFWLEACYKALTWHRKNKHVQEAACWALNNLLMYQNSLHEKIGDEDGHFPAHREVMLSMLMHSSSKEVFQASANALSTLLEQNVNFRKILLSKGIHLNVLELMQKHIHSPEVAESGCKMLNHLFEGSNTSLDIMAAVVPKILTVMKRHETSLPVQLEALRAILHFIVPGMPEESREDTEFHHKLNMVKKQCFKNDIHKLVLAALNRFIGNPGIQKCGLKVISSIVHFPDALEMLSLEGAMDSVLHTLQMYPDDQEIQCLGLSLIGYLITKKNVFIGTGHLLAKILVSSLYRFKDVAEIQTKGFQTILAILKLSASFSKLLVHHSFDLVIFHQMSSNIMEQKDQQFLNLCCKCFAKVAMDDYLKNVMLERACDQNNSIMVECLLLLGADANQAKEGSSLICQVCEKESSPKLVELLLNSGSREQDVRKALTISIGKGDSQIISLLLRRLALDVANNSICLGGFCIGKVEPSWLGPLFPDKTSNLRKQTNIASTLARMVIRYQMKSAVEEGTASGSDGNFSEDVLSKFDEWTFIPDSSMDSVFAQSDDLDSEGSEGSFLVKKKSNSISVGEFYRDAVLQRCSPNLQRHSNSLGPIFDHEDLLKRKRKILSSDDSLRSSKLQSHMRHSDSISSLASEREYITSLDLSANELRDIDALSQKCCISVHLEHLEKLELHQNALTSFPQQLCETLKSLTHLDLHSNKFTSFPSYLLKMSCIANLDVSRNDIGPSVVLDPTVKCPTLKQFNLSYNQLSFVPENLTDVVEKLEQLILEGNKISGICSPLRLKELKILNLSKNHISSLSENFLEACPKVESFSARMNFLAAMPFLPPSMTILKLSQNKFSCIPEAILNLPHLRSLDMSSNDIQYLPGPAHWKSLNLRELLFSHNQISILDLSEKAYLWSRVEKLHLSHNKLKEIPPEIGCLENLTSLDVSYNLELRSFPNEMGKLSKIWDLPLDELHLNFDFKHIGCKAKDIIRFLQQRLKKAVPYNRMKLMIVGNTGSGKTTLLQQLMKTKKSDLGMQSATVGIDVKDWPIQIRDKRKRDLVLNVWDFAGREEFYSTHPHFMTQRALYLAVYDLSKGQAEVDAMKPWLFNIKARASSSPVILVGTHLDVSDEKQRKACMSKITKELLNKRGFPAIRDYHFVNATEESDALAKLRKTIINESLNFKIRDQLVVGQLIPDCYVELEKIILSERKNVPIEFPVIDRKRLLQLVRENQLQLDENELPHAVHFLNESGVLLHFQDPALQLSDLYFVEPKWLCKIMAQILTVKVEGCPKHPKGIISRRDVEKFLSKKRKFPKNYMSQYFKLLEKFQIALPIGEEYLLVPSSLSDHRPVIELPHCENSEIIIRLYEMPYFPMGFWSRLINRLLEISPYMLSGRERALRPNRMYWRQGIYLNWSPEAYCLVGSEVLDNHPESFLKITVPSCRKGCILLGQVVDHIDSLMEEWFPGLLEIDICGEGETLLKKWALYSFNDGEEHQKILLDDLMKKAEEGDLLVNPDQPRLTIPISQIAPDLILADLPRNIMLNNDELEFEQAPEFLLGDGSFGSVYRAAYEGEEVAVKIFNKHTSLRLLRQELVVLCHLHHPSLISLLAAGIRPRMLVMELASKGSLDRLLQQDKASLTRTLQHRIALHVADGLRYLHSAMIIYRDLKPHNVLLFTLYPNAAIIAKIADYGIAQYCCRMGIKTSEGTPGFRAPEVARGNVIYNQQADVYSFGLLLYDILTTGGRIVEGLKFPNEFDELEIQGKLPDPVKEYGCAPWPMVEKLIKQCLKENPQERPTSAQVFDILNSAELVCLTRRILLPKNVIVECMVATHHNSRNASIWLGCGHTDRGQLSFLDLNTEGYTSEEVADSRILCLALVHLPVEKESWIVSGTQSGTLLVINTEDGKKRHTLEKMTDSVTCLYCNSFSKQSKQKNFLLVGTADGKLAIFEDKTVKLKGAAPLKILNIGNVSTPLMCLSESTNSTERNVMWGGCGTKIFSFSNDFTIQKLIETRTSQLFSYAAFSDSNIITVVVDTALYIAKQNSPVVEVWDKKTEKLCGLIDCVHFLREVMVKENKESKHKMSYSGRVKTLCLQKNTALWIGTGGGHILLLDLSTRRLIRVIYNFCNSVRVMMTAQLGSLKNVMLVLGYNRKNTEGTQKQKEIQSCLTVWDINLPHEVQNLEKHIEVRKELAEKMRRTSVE
T1 sequence (Q5S007 whole entry): as above
Experimental for HEK293 cells: Flow Cytometry. HEK293 cells were plated in 96-well plates (50 000/well) and allowed to grow 24 h in complete growth medium (DMEM supplemented with 10% fetal bovine serum, L-glutamine). DMEM was carefully aspirated and cells were treated with fresh pre-warmed complete growth medium supplemented with 10 μM of peptide or DMSO. After 6 hours, cells were analyzed on Beckman Cytoflex flow cytometer (Beckman Coulter). Using forward and side scattered light, a gate for intact, non-aggregated cells was defined and the fluorescence of 10,000 events was collected within this cell gate. The fluorescent channel for FITC (488-nm excitation [ex], 525-nm emission [em]) was used. Data was analyzed using FlowJo software and the reported fluorescent intensity values represent arithmetic means of the results determined for the analyzed cells.

Row | Substance | LRRK2 pulled down by biotin-labeled peptide (immunoblot) (GFP-tagged LRRK2 [1]) | LRRK2 localization after peptide treatment (GFP-tagged LRRK2 [2]) | LRRK2 dimerization (Strep-LRRK2 co-precipitated with GFP-LRRK2) (LRRK2 dimerization) | dose dependence of cell uptake by flow cytometry (HEK293 cells)
1 | COR-domain stapled peptide formed from SEQ ID NO. 16 KGEGEXLLKXWK, X = (S)-2-(4′-pentenyl)alanine; PEG3 linker, FAM or biotin label (hydrocarbon staple; PEG3 linker; FAM or biotin; COR domain peptide; (6)..(6) Xaa is (S)-2-(4′-pentenyl)alanine; (10)..(10) Xaa is (S)-2-(4′-pentenyl)alanine) [LCIP1] | successfully bound to LRRK2; also recorded: both peptides bound LRRK2 | LRRK2 maintained its cytoplasmic distribution; also recorded: did not induce mislocalization of LRRK2 | reduced the co-immunoprecipitation of the two LRRK2 proteins; also recorded: able to disrupt LRRK2 dimerization; also recorded: reduced dimerization; also recorded: inhibitory effect on LRRK2 | dose-dependent uptake
2 | Roc-domain stapled peptide formed from SEQ ID NO. 6 DEKQRKAC(Nle)SKITKEXLNKX, X = (S)-2-(4′-pentenyl)alanine; PEG3 linker, FAM or biotin label (DEKQRKACXSKITKEXLNKX; hydrocarbon staple; Nle; PEG3 linker; FAM or biotin; ROC domain petide; (9)..(9) Xaa is norleucine; (16)..(16) Xaa is (S)-2-(4′-pentenyl)alanine; (20)..(20) Xaa is (S)-2-(4′-pentenyl)alanine) [LRIP4] | successfully bound to LRRK2; also recorded: pulled down considerably more LRRK2 as compared to LCIP1; also recorded: both peptides bound LRRK2 | LRRK2 maintained its cytoplasmic distribution; also recorded: did not induce mislocalization of LRRK2 | reduced the co-immunoprecipitation of the two LRRK2 proteins; also recorded: able to disrupt LRRK2 dimerization with LRIP4 having the most pronounced effect; also recorded: reduced dimerization; also recorded: inhibitory effect on LRRK2 | dose-dependent uptake
